Laboratory results taken from patent US20100279930A1 (published 2010).
Like-named read-outs stand apart in the source and are kept apart here.

How the values were obtained:
human Y4 receptor [1] = biological target: T1, human Y4 receptor (human, UniProt P50391 1-375); experiment: 125I-PP displacement
human Y4 receptor [2] = biological target: T1, human Y4 receptor; experiment: 125I-PP displacement; remark: listed apart in the source

T1 sequence (P50391 whole entry): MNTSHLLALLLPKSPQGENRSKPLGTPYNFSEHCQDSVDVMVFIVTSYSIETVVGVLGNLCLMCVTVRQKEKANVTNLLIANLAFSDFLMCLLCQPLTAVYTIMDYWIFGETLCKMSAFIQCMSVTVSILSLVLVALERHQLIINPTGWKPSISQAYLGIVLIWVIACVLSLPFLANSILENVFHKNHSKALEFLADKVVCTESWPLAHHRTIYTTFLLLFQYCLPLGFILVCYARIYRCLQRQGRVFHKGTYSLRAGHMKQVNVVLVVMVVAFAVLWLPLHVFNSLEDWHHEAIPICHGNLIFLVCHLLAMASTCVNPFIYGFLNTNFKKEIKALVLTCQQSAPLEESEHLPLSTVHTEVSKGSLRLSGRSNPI

| Binder | IC50 (human Y4 receptor [1]) [nM] | IC50 (human Y4 receptor [2]) [nM] |
| --- | --- | --- |
| GAPLEPHYPGDDATPQQMARYAAELRRYINKLTRPRY [4057899] | 0.064 |  |
| APLEPHYPGDNATPEQMAKYAAELRRYINKLTRPRY [4057764] | 0.094 |  |
| AAPLEPHYPGDNATPEQMAKYAAALRRYINKLTRPRY [4057755] | 0.145 |  |
| AAPLEPHYPGDNATPEQMAKYAAELRRYINKLTRPRY [4057765] | 0.075 |  |
| YAPLEPEYPGDDATPQQMARYAAELRRYINKLTRPRY [4058053] | 0.042 |  |
| PAPLEPSYPGDNATPEQLAHYYSELRRYINKLTRPRY [4057781] | 0.132 |  |
| APLEPVYPGDNATPEQMNRYYASLRHYLNLVTRPRY [4054985] |  | 0.17 |
| APLEPVYPGDDATPQQMAQYYAELRHYLNLVTRPRY [4055248] |  | 0.38 |
| HAPLEPHYPGDNATPEQMARYAAELRRYINKLTRPRY [4057902] | 0.064 |  |
| APLEPHYPGDNATPEQMAKYAADLRRYINKLTRPRF [4057745] | 0.086 |  |
| APLEPVYPGDNATPEQMAQYAADLRRYIDMLTRPRY [4055403] |  | 0.5 |
| PAPLEPTYPGDNATPEQMAKYAAALRRYINMLTRPRY [7250] |  | 0.099 |
| PAPLEPTYPGDDATPQQMARYAAELRRYINKLTRPRY [7258] |  | 0.068 |
| PAPLEPEYPGDDATPQQMARYAAELRRYINFLTRPRY [7257] |  | 0.142 |
| PLEPFYPGDDATPQQMAQYAAALRRYINMLTRPRY [4055287] |  | 0.5 |
| PAPLEPTYPGDNATPEQMAKYAAELRRYINKLTRPRY [7252] |  | 0.082 |
| PAPLEPVYPGDNATPEELARYAAELRRYINKLTRPRY [4057769] | 0.117 |  |
| APLEPVYPGDNATPEQMAQYAADLRRYINMLTRPQY [4054977] |  | 1.8 |
| APLEPVYPGDNATPEQNLAQYAADLRRYINMLTRPRY [4055398] |  | 0.15 |
| APLEPHYPGDNATPEQMAKYAAALRRYINKLTRPRY [4057754] | 0.156 |  |

| Binder | IC50 (human Y4 receptor [1]) [nM] | IC50 (human Y4 receptor [2]) [nM] |
| --- | --- | --- |
| APLEPVYPGDNATPEQMAQYAADLRRYINMLTRPMY [4054976] |  | 1.4 |
| AAPLEPHYPGDNATPEQMAKYYSALRRYINKLTRPRY [4057758] | 0.19 |  |
| AAPLEPSYPGDNATPEQLAHYYSELRRYINKLTRPRY [4057779] | 0.071 |  |
| PAPLEPHYPGDDATPQQLAHYYSELRRYINKLTRPRY [4057789] | 0.164 |  |
| YAPLEPHYPGDDATPQQMARYAAELRRYINKLTRPRY [4058054] | 0.137 |  |
| PAPLEPHYPGDDATPQQMARYAAELRRYINKLTRPRY [4057897] | 0.07 |  |
| APLEPVYPGDNATPEQMAQYAADLMRYINMLTRPRY [4054981] |  | 0.38 |
| APLEPVYPGDNATPEQMAQYAADLRRYINMLTRPHY [4054987] |  | 0.72 |
| PAPLEPHYPGDNATPEQLAKYAADLRRYINKLTRPRY [4057753] | 0.07 |  |
| PAPLEPSYPGDNATPEQMAKYAAALRRYINLLTRPRY [4058052] | 0.085 |  |
| AAPLEPHYPGDNATPEQLAKYAADLRRYINKLTRPRY [4057752] | 0.071 |  |
| PAPLEPHYPGDNATPEQMAKYYSELRRYINKLTRPRY [4057763] | 0.174 |  |
| APLEPVYPGDNATPEQMAQYYASLQHYLNLVTRPRY [4055246] |  | 0.46 |
| APPEPVYPGDDATPEQMAEYVADLRRYINMLTRPRY [4055405] |  | 0.24 |
| PLEPHYPGDNATPEQMARYAAELRRYINKLTRPRY [4057900] | 0.09 |  |
| AAPLEPHYPGDNATPEQMAKYYSELRRYINKLTRPRY [4057762] | 0.167 |  |
| APLEPVYPGDNATPEQMAKYAADLRRYINMLTRPRY [compound of SEQ ID NO:224 (Lys 19, code 4055291)] |  | 0.32 |
| APLEPVYPGDNATPEQMARYAAALRRYINMLTRPRY [7242] |  | 0.14 |
| APLEPVYPGDNATPEQMAQYAADLRRYINLLTRPRY [4055399] |  | 0.28 |
| APLEPVYPGDDATPQQMAQYYASLRHYLNLVTRPRY [4055247] |  | 0.3 |

| Binder | IC50 (human Y4 receptor [1]) [nM] | IC50 (human Y4 receptor [2]) [nM] |
| --- | --- | --- |
| PAPLEPTYPGDDATPQQMARYAAELRRYINILTRPRY [7271] |  | 0.22 |
| APLEPVYPGDDATPEQMAQYAAELRRYINMLTRPRY [4055195] |  | 0.86 |
| APLEPVYPGDDATPEQMAEYAADLRRYINMLTRPRY [4055406] |  | 0.17 |
| PAPLEPTYPGDNATPEQMAKYAAELRRYINFLTRPRY [7253] |  | 0.095 |
| APLEPVYPGDNATPEQMAEYAADLRRYINMLTRPRY [4055524] |  | 0.3 |
| APLEPVYPGDNATPEQLAQYAADLRKYINLLTRPRY [4055549] |  | 0.2 |
| PAPLEPTYPGDDATPQQMAKYAAELRRYINILTRPRY [7270] |  | 0.171 |
| PAPLEPVYPGDNATPEQMARYAAALRRYINKLTRPRY [7243] |  | 0.058 |
| APLEPVYPGDNATPEQMAQYYASLRHYLNLVTRPRY [4055245] |  | 0.5 |
| APLEPVYPGDNATPEQMAQYAADLNLRYINMLTRPRY [4054990] |  | 0.67 |
| AAPLEPTYPGDDATPQQMARYAAELRRYINFLTRPRY [7274] |  | 0.107 |
| PAPLEPVYPGDNATPEQIARYAAALRRYINKLTRPRY [7244] |  | 0.106 |
| PAPLEPTYPGDNATPEQMARYAAALRRYINMLTRPRY [7249] |  | 0.089 |
| PAPLEPTYPGDDATPQQMARYAAALRRYINILTRPRY [7269] |  | 0.187 |
| KPLEPVYPGDNATPEQMAQYAADLRRYINMLTRPRY [4055292] |  | 0.4 |
| APLEPVYPGDNATPEQMAHYAADLRRYINMLTRPRY [4055525] |  | 0.11 |
| PAPLEPKYPGDNATPEQMARYAAALRRYINMLTRPRY [7248] |  | 0.131 |
| PAPLEPTYPGDDATPQQMARYAAELRRYINFLTRPRY [7259] |  | 0.075 |
| PAPLEPTYPGDNATPEQMAKYAAELRRYINMLTRPRY [7251] |  | 0.096 |
| PAPLEPTYPGDDATPQQMAKYAAALRRYINILTRPRY [7268] |  | 0.127 |
